According to the nanobody polyreactivity screen of Harvey et al. (2022):

Assay: yeast display, Sf9 membrane polyspecificity reagent, FACS + sequencing; frameworks hold sequencing errors
Summary of the method: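 Polyreactivity labels are assigned by the sorting gate from which each nanobody was recovered. The gates were low and high (top ~1%), set on anti-HA fluorescence for expression and streptavidin fluorescence for reagent binding. Before sorting, galactose-induced (36–48 hours) yeast display cells were stained for 1 hour at 4 °C with 10% biotinylated, detergent-solubilized Sf9 membrane reagent.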

Q: With “QVQHVDSGGGIVQAGGSLRLSCAPSGRTILRYTMGWYRHAPGKERELVASITRGGSSYYADSVKGRFTISRDNAKNTVYLQMNSLKPEDTAVYYCAARRYYGVYYAFYYWGQGTQVTVSS” as the sequence, how does the “polyreactivity (PSR sort gate)” value read?
A: high polyreactivity

Q: Which “polyreactivity (PSR sort gate)” value does the source give for “QVQLVESGGGLVQAGGSLRLSCAASGRIFSSNAMGWYRQAPGTERELVASLSSTGSPKYADSVKGRFTISRDNAKNTVYLQMNSLIPEDTAVYYCAATQVRRGPAWGRDYWGQGTQVTVSS” here?
A: low polyreactivity

Q: For “QVQLVESRGGLVQAGGSLRLSCAASGSIFYRYARGWYRQAPGKERELVAAITYSGGRTYYADSVKGRFTISRDNAKNTVYLQMNSLKPEDTAVYYCAAEKQSYGSPQGYDYWGQGTQVTVSS”, which “polyreactivity (PSR sort gate)” value is on record?
A: low polyreactivity

Q: Which “polyreactivity (PSR sort gate)” value does the source give for “QVQLVESGGGLVQAGGSLRLSCAASGIIFYDNAMGWYRKAPGKERELVATITRSGDSTYYADSVKGRFTISRDNAKNTVYLQMNSLKPEDTAVYYCAKDTYGVLAYFQVSREYWGQGTQVTVSS” here?
A: low polyreactivity

Q: Which “polyreactivity (PSR sort gate)” value does the source give for “QVQLVESGGGLVQAGGSLRLSCAASGFIFGEYAMGWYRQAPGKERELVAAITWSGGSTSYADSVKGRFTSSRDNAKNTVYLQMNSLKPEDTAVYYCSARWHVYWGGFYYWGQVTQVTVSS” here?
A: high polyreactivity

Q: Which “polyreactivity (PSR sort gate)” value does the source give for “QVQLVESGGGLVQAGGSLRLSCAASGSTFPYYAMGWSRQAPGKERELVAAISGSGGTTYYADSVKGRFTISRDNAKNTVYLQMNSLKPEYTAVYYCAVDIGVGYGYYYWGQGTQVTVSS” here?
A: low polyreactivity

Q: With “QVQLVESGGGLVQAGGSLRLSCAASGSIFISNAMGWYRQAPGTERELVAAISRSGARTYYADSVKGRFTISRDNAKNTVYLQMNSLKPEDTAVYYCAVVGYSPYKYDYWGQGTQVTVSS” as the sequence, how does the “polyreactivity (PSR sort gate)” value read?
A: high polyreactivity

Q: For “QVQLVESGGGLVQAGGSLRLSCAASGFIFYSYAMRWYRQDPGQERELVAAISTSGGSSYYADSVKGRFTMSRDNAKNTVYLQMNSLKPEDTAVYYCATLSAFYPFAYDYWGQGTQVTVSS”, which “polyreactivity (PSR sort gate)” value is on record?
A: high polyreactivity

Q: With “QVQLVESGGGLVQAGGSLRLSCAASGFTFTRYAMGRYRQAPGKERELGATITKRGGSTYYADSVKGRFTISRDNAKNTVYLQLNSLKPEDTAVYFCAARNVRTYVTGVDYDYWGQGTQVTVSS” as the sequence, how does the “polyreactivity (PSR sort gate)” value read?
A: high polyreactivity

Q: Which “polyreactivity (PSR sort gate)” value does the source give for “QVQLVESGGGLVQAGGSLRLSCAASGFTFRSNVMGWYRQAPRKERELVAAIRWSGGSTYYADSVKGRFTISRDNAMNTVYLQMNSLKPDDTAVYYCNARIYRSGYKFNYWGQGTQVTVSS” here?
A: high polyreactivity

Q: For “QVQLQESRGGLVKAGGSLRLSCAATGNISPRDAMGWYRQAPGEERDLVASNAYSAITYYADGVKGRYTISRDNAKNTVYLQMNSLKPEDTEVYYCAVYQFTYPVFPAYWGQGTQVTVSS”, which “polyreactivity (PSR sort gate)” value is on record?
A: low polyreactivity

Q: For “QVQLVESGAGLVQAGGSLRLSCAASGFIFAGYAMGLYRQAPGKERELFAAISSRGGSTYYADSVKGRFTISRDNAKNPVDLQMNSLKPEDTAVYYCNKYYYGFTPVGYKKMDYWGQGTQVIVSS”, which “polyreactivity (PSR sort gate)” value is on record?
A: low polyreactivity

Q: For “QVQLVESGGGLVQAGGSLRLRWAASGFIFGYYPMGWYRPAPGKERELVAAINSSGGSTYYADSVKGRFTISRDNAKNTVYLQMNSLKPADTAVYYCAARAYQRGIYWGQGTQVTLSS”, which “polyreactivity (PSR sort gate)” value is on record?
A: high polyreactivity

Q: Which “polyreactivity (PSR sort gate)” value does the source give for “QVQLVESGGGLVQAGGSLRLSCAASGSIFPYYAMGWYRKAPGKERELVAAISSSGGSTTYADSVKGRFTISRDHAKNTVYLQMNSLKPEDTAVYYCAALTYRRSSGGFDYWGQGTQVTVSS” here?
A: high polyreactivity

Q: Which “polyreactivity (PSR sort gate)” value does the source give for “QVQLVESGGGLVQAGGSLRLSCAASGLIFRGYAMGWYRQAPGKERELVAAISKSGGSTYYADSVKGRFTISRDNAKNTVYLQMNSLKPEDTAVYYCNARKHGSRTGGYYWGQGTQVTVSS” here?
A: high polyreactivity

Q: With “QVQLVESGGGLVQAGGSLRLSCAASGYTFLANAMGWYRQAPGKERELVAAISSGGTTYYADSVKGRFTISRDNAKNTVYLQMNSLKPEDTAVYYCAAKDTTVFYYDDDYWGQGTQVTVSS” as the sequence, how does the “polyreactivity (PSR sort gate)” value read?
A: low polyreactivity

Q: With “QVQLVESGGGLVQAGGSLRVSCAASGRIFFRNAMGWYRQAPGKESELVAAITRGGGSTYYADSVKGRFTISRDNATNTVYLQMNSLKPEDTEVYYCAAGAGYSLYSAYDYWGQGTQVTVSS” as the sequence, how does the “polyreactivity (PSR sort gate)” value read?
A: low polyreactivity

Q: For “QVQLVESGGGLVQAGGSLRLSCAACGSIFPGYAMGWYREAPGKERELVAAITWNGGRTYSADSVKGRFTISRDNAKNTVYLQMNSLKPEDTAVYYCAVAGYAGLSVKYGYWGQGTQVTVSS”, which “polyreactivity (PSR sort gate)” value is on record?
A: high polyreactivity

Q: With “QVQLVESGGGLVQAGGSLRLSCAASGITFYVNAMGWYRQAPGKERELVAVITFGGGSTYYADSVKGRFTISRDNAKNTVYLQMNSLKPEDTAVYYCAKDPTYSPYLPGPIFYYKEDYWGQGTQVTVSS” as the sequence, how does the “polyreactivity (PSR sort gate)” value read?
A: low polyreactivity

Q: With “QVQLVESGGGLVQAGGSLRLSCAASGSTFSDNAMGWYRQAPGKEREFVAAINETGGSTYYADSVKGRFTISRDNAKNTVYVQMNSLKPEDTAVYYCNADIDPYGATYAIEYDYWGQGTQVTVSS” as the sequence, how does the “polyreactivity (PSR sort gate)” value read?
A: low polyreactivity

Q: For “QVQLVESGGGLVQAGGSLRLSCAASGFIFEPYAMGWYRQAPGKERELVAAISSGGSTYADSVKGRFTISRDNAKNTVYLQMNSLKPEDTAVYYCAVRGYWGQGTQVTVSS”, which “polyreactivity (PSR sort gate)” value is on record?
A: low polyreactivity

Q: For “QVQLVESGGGLVQAGGSLRLSSAASGRILPVNTMGWYRQAPGKERELVAVITRSGGRTYYADSVKGRFTISRDYAKNTVYLQMNSLKPEDTAVYYCAADVGFRWYRYTAGPLEYDYWGQGTQVTVSS”, which “polyreactivity (PSR sort gate)” value is on record?
A: high polyreactivity

Q: With “QVQLVESGGGLVQAGGSLRLSCAASGFTFAYAMGWYRQAPGKERELVAAISFSGGSTYYADSVKGRFTISRDNAKNTVYLQMNSLKPEDTAVYYCNKRGGKRSTMDYWGHGTQVTVSS” as the sequence, how does the “polyreactivity (PSR sort gate)” value read?
A: low polyreactivity

Q: Which “polyreactivity (PSR sort gate)” value does the source give for “QVQLVESGGGLVQAGGSLRLSCAASGLTFYLYVMGWYRQAPWKERELVAAISRRGGSTYYADSVKGRFTISRDNAKNTVYLQMNSLKPEDTAVYYCAARVYGTYRGIQYGYWGQGTQVTVSS” here?
A: high polyreactivity

Q: With “QVQLVESCGGLVQAGGSLRLSCAASGRISQNAMGWYRQPPVKERELVAAITFSGGSTYYADSVKGRFTISRDNAKNTVYLQMNSLKPEDTAVYYCNGDYGDWPTAGDYWGQGTQVTVSS” as the sequence, how does the “polyreactivity (PSR sort gate)” value read?
A: low polyreactivity

Q: Which “polyreactivity (PSR sort gate)” value does the source give for “QVQLVESGGGLVQAGGSLRLSCAASGFIFYDYDMGWYRQAPGKERELVAAISDGGSTNYADSVKGRFTISRDNAKNTVYLQMNSLKPEDTAVYYCAKDGFVYYDYFQYIEYDYWGQGTQVTVSS” here?
A: low polyreactivity

Q: Which “polyreactivity (PSR sort gate)” value does the source give for “QVQLVESGGGLVQAGGSHRLSCAASGRIFRSYAMGWYRQAPGKERELVAAISDRGGSTYYADSVKGRFTISRDNAKKTVYVQMNRLKAEDTAVYSCNAPRGGRNTVYYWGQGTQVTVSS” here?
A: high polyreactivity

Q: For “QVHLVDSGGGLVQAGGSLRLSCAASGRIFSPYAMGWYRQAPGKERELVASINYSGGSTYADSVKGRFTISRDNAKNTVYLQMNSLKPEDTAVYYCAAEDIGRYYRLDYWGQGTQVSVSS”, which “polyreactivity (PSR sort gate)” value is on record?
A: low polyreactivity

Q: Which “polyreactivity (PSR sort gate)” value does the source give for “QVQLVESGGGLVQAGGSLRLSCAASGSTFGAYVMGWYRQAPGTERELVAVISSGGSTKYADSVKGRFTISRDNAKNTVYLQMNSLKPEDTAVYYCSARRASRHRYYPFDYWGQGTQVTVSS” here?
A: high polyreactivity

Q: With “QVQLVESGGGLVQAGGSLRLSCAASGSIFRYYAMGWYRPAPGKERELVARISATGASTYYADSVKGRFTISRDNAKNTVYLQMNSLKPEDTAVYYCAAGGRSRWGRYSPYDYWGQGTQVTVSS” as the sequence, how does the “polyreactivity (PSR sort gate)” value read?
A: high polyreactivity

Q: For “QVQLVESGGGLVQAGGSLRLSCAASGSIFYVYVMGWYRQAPGKERELVAGISYRGGSTYYADSVKGRFTISRDNAKNTVYLQMNSLKPEDTAVYYCNAGVWTYWHIEMDYWGQGTQVTVSS”, which “polyreactivity (PSR sort gate)” value is on record?
A: low polyreactivity

Q: Which “polyreactivity (PSR sort gate)” value does the source give for “QVQLVESGGGLVQAGGSLRLSCAASGSNFFYYVMGWYRQAPGKERERVAAITRSTGSTYYADSVKGRFTISRDNAKNTVYLQMNSLIPEDTAVYSCAAEGPKWYYSGAFDYWGQGTQVTVSS” here?
A: low polyreactivity

Q: For “QVQLVESGGGLVQAGGSLRLSCAASGSIFAVYAMGWYRQAPGKERELVATISGRGGSTYYADSVKVRFTISRDNAKNTVYLQMNSLKPEDTAVYYCNARVLFRRERMDSWGQGTKVTVSS”, which “polyreactivity (PSR sort gate)” value is on record?
A: high polyreactivity

Q: Which “polyreactivity (PSR sort gate)” value does the source give for “QVQLVESVGGLVQAGGSLPLSCDASGSIFFYYAMGWSRHAPGKESELVAAIDFNGGTTYYADSVKGRFTISRDTAKITVYLQMNSLTPEDTAVYYCAAEWEGTYSTVPDEFNYWGQGTQVTVSS” here?
A: high polyreactivity

Q: With “QVQLVESGGGLVQAGGSLRLSCAASGRIFSIYGMGWYRQAPGKERELVAVISGSVAITYYADSVKGRFTISRDNAKNTVYLQMNSLKPEDTAVYYCAAVYQSRLWARYYYWGQGSQVTVSS” as the sequence, how does the “polyreactivity (PSR sort gate)” value read?
A: high polyreactivity

Q: With “QFQLEESGRGLVQAGGSLRLSCAASGSTLSYNAMGCYRQAPGKERELVAAISGRGGSTSYADSVKGRFTITRDNAKKTVYLQMNRLKPVDTAVYYCIAGKYSSSAALYDYWGQGTQVTVSS” as the sequence, how does the “polyreactivity (PSR sort gate)” value read?
A: high polyreactivity

Q: For “QVQLVESGGGLVQAGGSLRLSCAASGSIFSYYAMGWYRQAPGKERELVAAINGGDSTNYADSVKGRFTISRDNAKNTVYLQMNSLKPEDTAVYYCAADNYDAALLFEYYYWGQGTQVTVSS”, which “polyreactivity (PSR sort gate)” value is on record?
A: low polyreactivity

Q: For “QLQLVESGGGLVQAVGSLRLSCAATGSIFYPYAMGWNRQAPGKERELVASISWSGGITYYADSVKGRFTISRDNAKNTVYLQMNSLKPEDTAVYYCAADFSWYLYDYDYWGQGTQVTVSS”, which “polyreactivity (PSR sort gate)” value is on record?
A: low polyreactivity

Q: For “QVQLVESGGGLVQAGGSLRLSCAASGFTLPLYAMGWYRQAPGKERELVATISSGGTTYYADSVKGRFTISRDNAKNTVYLEMNCLKPEDTGVYYCAAGGTFFHRFYYYYRSDYWGQGTQVTVSS”, which “polyreactivity (PSR sort gate)” value is on record?
A: high polyreactivity

Q: For “QVQLVESGGGLVQAGGSLRLSCAASGYTFGYYTMGWYRQAPGKERELVASIDSGGGTNYADSVKGRFTISRDNAKNTVYLQMNSLKPEDTEVYYCAAEYPLYWVDDFESGWRYYYWGQGTQVTVSS”, which “polyreactivity (PSR sort gate)” value is on record?
A: low polyreactivity

Q: Which “polyreactivity (PSR sort gate)” value does the source give for “QVQLVESGGGLVQAGGSLRLSCAASGFTFTWYAMGWYRQAPGKERELVATISRSGGRTYYADSVKGRFTISRDNAKNTVYLQLNSLKPEDTAVYYCAADTRNYPRYDYWGQGTQVTVSS” here?
A: high polyreactivity

Q: For “QVQLVESGGGLVQAGGSLRLSCAASGITFGRNTMGWYRQAPGKERELVAAIDSGRNTYADSVKGRFTISRDNAKNPVYLQMNSLKPEYTAVYYCNADKSNFVRGYYWGQGTQVTVSS”, which “polyreactivity (PSR sort gate)” value is on record?
A: low polyreactivity

Q: With “QVQLVESGGGLVQAGGSLRLSCDASGRIFHYNSMGWYRQAPGKERELVAAISTGGSTNYADSVKGRFTISRDNAKNTVYLQMNSLKPEDTAVYYCAADHPVTYPTSKFDYWGQGTQVTVSS” as the sequence, how does the “polyreactivity (PSR sort gate)” value read?
A: low polyreactivity
